The text below walks through data of patent US20250066503A1, “CELL INJURY INDUCING THERAPEUTIC DRUG FOR USE IN CANCER THERAPY” (CHUGAI SEIYAKU KABUSHIKI KAISHA, priority 2016, published 2025).

The test addresses T1, soluble human CD3 epsilon chain (human, UniProt P07766 23-126).
T1 construct: also called CD3ε
Briefly: SPR.

T1 sequence (P07766 23-126 limits assumed): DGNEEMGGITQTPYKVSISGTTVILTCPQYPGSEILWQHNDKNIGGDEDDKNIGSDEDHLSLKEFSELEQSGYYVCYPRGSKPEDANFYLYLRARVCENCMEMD

B1: TR01H049-E22Hh/none-Hi-Kn010G3/L0000-k0 (antibody, V domains shown)
VH: QVQLVESGGGLVQPGRSLRLSCAASGFTFSNAWMHWVRQAPGKGLEWVAQIKDKSQNYATYYAESVKGRFTISRDDSKNSIYLQMNSLKTEDTAVYYCRYVHYSASYGVDAWGQGTTVTVSS
VL: DIVMTQSPLSLPVTPGEPASISCRSSQSLVHSNRNTYLHWYQQKPGQAPRLLIYKVSNRFSGVPDRFSGSGSGTDFTLKISRVEAEDVGVYYCGQGTQVPYTFGQGTKLEIKR
notes: one-arm
By Kd is commonly meant the equilibrium constant for the complex coming apart. B1 showed a Kd of 67.9 nM.

B2: TR01H051-E22Hh/none-Hi-Kn010G3/L0000-k0 (antibody, V domains shown)
VH: QVQLVESGGGLVQPGRSLRLSCAASGFTFSNAWMHWVRQAPGKGLEWVAQIKDKSNNYATYYAESVKGRFTISRADSKNSLYLQMNSLKTEDTAVYYCRYVHYSASYGVDIWGQGTTVTVSS
VL: DIVMTQSPLSLPVTPGEPASISCRSSQSLVHSNRNTYLHWYQQKPGQAPRLLIYKVSNRFSGVPDRFSGSGSGTDFTLKISRVEAEDVGVYYCGQGTQVPYTFGQGTKLEIKR
notes: one-arm
In turn, B2 had a Kd of 29.1 nM.

B3: TR01H052-E22Hh/none-Hi-Kn010G3/L0000-k0 (antibody, V domains shown)
VH: QVQLVESGGGLVQPGRSLRLSCAASGFTFSNAWMHWVRQAPGKGLEWVAQIKDKSQNYATYYAESVKGRFTISRADSKNSLYLQMNSLKTEDTAVYYCRYVHYSASYGVDIWGQGTTVTVSS
VL: DIVMTQSPLSLPVTPGEPASISCRSSQSLVHSNRNTYLHWYQQKPGQAPRLLIYKVSNRFSGVPDRFSGSGSGTDFTLKISRVEAEDVGVYYCGQGTQVPYTFGQGTKLEIKR
notes: one-arm
B3 had a Kd of 62.7 nM.

B4: TR01H056-E22Hh/none-Hi-Kn010G3/L0000-k0 (antibody, V domains shown)
VH: QVQLVESGGGLVQPGRSLRLSCAASGFTFSNAWMHWVRQAPGKGLEWVAQIKDKSQNYATYYAESVKGRFTISRDDSKNSLYLQMNSLKTEDTAVYYCRYVHYSASYGVDIWGQGTTVTVSS
VL: DIVMTQSPLSLPVTPGEPASISCRSSQSLVHSNRNTYLHWYQQKPGQAPRLLIYKVSNRFSGVPDRFSGSGSGTDFTLKISRVEAEDVGVYYCGQGTQVPYTFGQGTKLEIKR
notes: one-arm
For B4, the dissociation constant (Kd) came out at 73.2 nM.

B5: TR01H054-E22Hh/none-Hi-Kn010G3/L0000-k0 (antibody, V domains shown)
VH: QVQLVESGGGLVQPGRSLRLSCAASGFTFSNAWMHWVRQAPGKGLEWVAQIKDKSQNYATYYAESVKGRFTISRADSKNSLYLQMNSLKTEDTAVYYCRYVHYSASYGVDYWGQGTTVTVSS
VL: DIVMTQSPLSLPVTPGEPASISCRSSQSLVHSNRNTYLHWYQQKPGQAPRLLIYKVSNRFSGVPDRFSGSGSGTDFTLKISRVEAEDVGVYYCGQGTQVPYTFGQGTKLEIKR
notes: one-arm
B5 had a Kd of 77.9 nM.

B6: TR01H055-E22Hh/none-Hi-Kn010G3/L0000-k0 (antibody, V domains shown)
VH: QVQLVESGGGLVQPGRSLRLSCAASGFTFSNAWMHWVRQAPGKGLEWVAQIKDKSNNYATYYAESVKGRFTISRDDSKNSLYLQMNSLKTEDTAVYYCRYVHYSASYGVDIWGQGTTVTVSS
VL: DIVMTQSPLSLPVTPGEPASISCRSSQSLVHSNRNTYLHWYQQKPGQAPRLLIYKVSNRFSGVPDRFSGSGSGTDFTLKISRVEAEDVGVYYCGQGTQVPYTFGQGTKLEIKR
notes: one-arm
As for B6, the Kd amounted to 38.8 nM.

B7: TR01H050-E22Hh/none-Hi-Kn010G3/L0000-k0 (antibody, V domains shown)
VH: QVQLVESGGGLVQPGRSLRLSCAASGFTFSNAWMHWVRQAPGKGLEWVAQIKDKSQNYATYYAESVKGRFTISRDDSKNSIYLQMNSLKTEDTAVYYCRYVHYSASYGVDYWGQGTTVTVSS
VL: DIVMTQSPLSLPVTPGEPASISCRSSQSLVHSNRNTYLHWYQQKPGQAPRLLIYKVSNRFSGVPDRFSGSGSGTDFTLKISRVEAEDVGVYYCGQGTQVPYTFGQGTKLEIKR
notes: one-arm
B7 gave a dissociation constant Kd of 57.6 nM.

B8: TR01H053-E22Hh/none-Hi-Kn010G3/L0000-k0 (antibody, V domains shown)
VH: QVQLVESGGGLVQPGRSLRLSCAASGFTFSNAWMHWVRQAPGKGLEWVAQIKDKSQNYATYYAESVKGRFTISRADSKNSLYLQMNSLKTEDTAVYYCRYVHYSASYGVDAWGQGTTVTVSS
VL: DIVMTQSPLSLPVTPGEPASISCRSSQSLVHSNRNTYLHWYQQKPGQAPRLLIYKVSNRFSGVPDRFSGSGSGTDFTLKISRVEAEDVGVYYCGQGTQVPYTFGQGTKLEIKR
notes: one-arm
In turn, B8 registered an equilibrium dissociation constant (Kd) of 82.3 nM.
